Biological target: ligated complex of zebrafish PlexinC1_(cyto) and human Rap1B with the 24-residue linker and the LPETGG sortase recognition motif (human | zebrafish) (UniProt P61224)
Assay: AUC; sedimentation velocity, with 2 mM AlFx; 0.5, 4, 8 and 20 μM; 10 mM Tris pH 8, 50 mM NaCl, 2 mM TCEP, 2 mM MgCl2; 20°C, 42,000 rpm; c(s) analysis; monomer to dimer

stoichiometry N: 2
Substance: ligated complex of zebrafish PlexinC1_(cyto) and human Rap1B with the 24-residue linker and the LPETGG sortase recognition motif (from UniProt P61224 2-166; A0A8M3ARP5 552-1147)

Reference: publication PMC3787391
